{"source": "patent US20240002532A1", "target": "HER2 (human epidermal growth factor receptor 2) (human) (UniProt P04626)", "assay": "cell-based or functional assay", "data": [{"substance": "CasMab250 (H/L)-based CAR with medium spacer (IgG4 hinge & CH3 domain) and CD28-CD3ζ1XX intracellular signaling domains", "values": [{"measurement": "maximal cytolysis of SKOV3 tumor cells (xCELLigence, donor T cells, E:T 1:1)", "result": 90, "unit": "%"}]}]}
